# Reference: IntAct's records for PubMed 24525233
# B1: Transcription cofactor vestigial-like protein 4 (Homo sapiens), Q14135 (parent)
# chain: METPLDVLSRAASLVHADDEKREAALRGEPRIQTLPVASALSSHRTGPPPISPSKRKFSMEPGDEDLDCDNDHVSKMSRIFNPHLNKTANGDCRRDPRERSRSPIERAVAPTMSLHGSHLYTSLPSLGLEQPLALTKNSLDASRPAGLSPTLTPGERQQNRPSVITCASAGARNCNLSHCPIAHSGCAAPGPASYRRPPSAATTCDPVVEEHFRRSLGKNYKEPEPAPNSVSITGSVDDHFAKALGDTWLQIKAAKDGASSSPESASRRGQPASPSAHMVSHSHSPSVVS
# Variants of: B1
# Settings: with tead4_human TEAD4, Q15561
# tead4_human TEAD4, Q15561, sequence (Q15561 whole entry): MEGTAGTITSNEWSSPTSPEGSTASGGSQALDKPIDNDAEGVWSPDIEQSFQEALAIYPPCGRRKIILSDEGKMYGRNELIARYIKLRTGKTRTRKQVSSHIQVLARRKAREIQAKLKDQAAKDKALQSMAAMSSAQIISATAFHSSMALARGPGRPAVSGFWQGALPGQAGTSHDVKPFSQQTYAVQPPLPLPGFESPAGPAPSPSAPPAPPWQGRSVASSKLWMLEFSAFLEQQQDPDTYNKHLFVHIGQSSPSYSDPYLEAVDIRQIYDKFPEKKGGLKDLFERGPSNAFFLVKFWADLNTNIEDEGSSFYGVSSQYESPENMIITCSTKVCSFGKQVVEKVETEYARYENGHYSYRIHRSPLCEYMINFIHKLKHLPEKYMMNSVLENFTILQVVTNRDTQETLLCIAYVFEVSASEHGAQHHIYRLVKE
row,effect of a mutation on the interaction,Variant
1,decreasing interaction,METPLDVLSRAASLVHADDEKREAALRGEPRIQTLPVASALSSHRTGPPPISPSKRKFSMEPGDEDLDCDNDHVSKMSRIFNPHLNKTANGDCRRDPRERSRSPIERAVAPTMSLHGSHLYTSLPSLGLEQPLALTKNSLDASRPAGLSPTLTPGERQQNRPSVITCASAGARNCNLSHCPIAHSGCAAPGPASYRRPPSAATTCDPVVEEHFRRSLGKNYKEPEPAPNSVSITGSVDDAFAKALGDTWLQIKAAKDGASSSPESASRRGQPASPSAHMVSHSHSPSVVS [H240A]
2,disrupting interaction,METPLDVLSRAASLVHADDEKREAALRGEPRIQTLPVASALSSHRTGPPPISPSKRKFSMEPGDEDLDCDNDHVSKMSRIFNPHLNKTANGDCRRDPRERSRSPIERAVAPTMSLHGSHLYTSLPSLGLEQPLALTKNSLDASRPAGLSPTLTPGERQQNRPSVITCASAGARNCNLSHCPIAHSGCAAPGPASYRRPPSAATTCDPVVEEAARRSLGKNYKEPEPAPNSVSITGSVDDAAAKALGDTWLQIKAAKDGASSSPESASRRGQPASPSAHMVSHSHSPSVVS [H212A;F213A;H240A;F241A]
3,decreasing interaction,METPLDVLSRAASLVHADDEKREAALRGEPRIQTLPVASALSSHRTGPPPISPSKRKFSMEPGDEDLDCDNDHVSKMSRIFNPHLNKTANGDCRRDPRERSRSPIERAVAPTMSLHGSHLYTSLPSLGLEQPLALTKNSLDASRPAGLSPTLTPGERQQNRPSVITCASAGARNCNLSHCPIAHSGCAAPGPASYRRPPSAATTCDPVVEEHFRRSLGKNYKEPEPAPNSVSITGSVDDAAAKALGDTWLQIKAAKDGASSSPESASRRGQPASPSAHMVSHSHSPSVVS [H240A;F241A]
4,decreasing interaction,METPLDVLSRAASLVHADDEKREAALRGEPRIQTLPVASALSSHRTGPPPISPSKRKFSMEPGDEDLDCDNDHVSKMSRIFNPHLNKTANGDCRRDPRERSRSPIERAVAPTMSLHGSHLYTSLPSLGLEQPLALTKNSLDASRPAGLSPTLTPGERQQNRPSVITCASAGARNCNLSHCPIAHSGCAAPGPASYRRPPSAATTCDPVVEEHFRRSLGKNYKEPEPAPNSVSITGSVDDHFAKAAGDTWLQIKAAKDGASSSPESASRRGQPASPSAHMVSHSHSPSVVS [L245A]

# Variants of: B1
# Settings: with tead4_human TEAD4, Q15561
# Remark: another data set of the same source
row,effect of a mutation on the interaction,Variant
1,decreasing interaction,METPLDVLSRAASLVHADDEKREAALRGEPRIQTLPVASALSSHRTGPPPISPSKRKFSMEPGDEDLDCDNDHVSKMSRIFNPHLNKTANGDCRRDPRERSRSPIERAVAPTMSLHGSHLYTSLPSLGLEQPLALTKNSLDASRPAGLSPTLTPGERQQNRPSVITCASAGARNCNLSHCPIAHSGCAAPGPASYRRPPSAATTCDPVVEEHFRRSLGKNYKEPEPAPNSVSITGSVDDHFAKALGDTALQIKAAKDGASSSPESASRRGQPASPSAHMVSHSHSPSVVS [W249A]
